Source: the supplement of paper PMC9732359
± gives the uncertainty stated by the source.

Experiment: protein stability index of a GFP-peptide fusion (yeast GPS) (PSI 1-4); higher = more stable; sorted into four equal gates, so the index is relative within each strain
Summary of the method: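 The protein stability index combines read frequencies across sorting gates, each weighted by its gate number and then summed. To obtain those frequencies, a pooled yeast library of GFP fusions to tiled 17-residue yeast protein peptides, on a plasmid also expressing Cherry, was grown to mid-log phase in leucine-free medium. The cells were sorted into four equal gates by GFP/Cherry ratio before plasmid amplification by PCR and Illumina sequencing.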

Sequence	protein stability index (doa10∆)	protein stability index (pdr5∆)	protein stability index (san1∆)	protein stability index (ubr1∆)
TMRRQKLTILQEGIEAI [RET1]	2.39 ± 0.076	2.67 ± 0.051	2.8 ± 0.078	2.96 ± 0.062
EISISFDVNNIDMHLIY [YDL116W/NUP84]	1.94 ± 0.082	2.43 ± 0.093	2.02 ± 0.089	2.25 ± 0.057
ASSPIILEEGSSGMGAF [RPN10]	3.04 ± 0.079	3.04 ± 0.083	2.99 ± 0.089	3.14 ± 0.059
RLDSYKVIEQPITSETA [RPL25]	1.94 ± 0.055	2.31 ± 0.079	2.31 ± 0.079	2.5 ± 0.067
LRLRISRKRNEEEDAKN [RPL31A]	1.72 ± 0.17	2.39 ± 0.17	3.35 ± 0.16	2.32 ± 0.14
TELVDKANIFQVIKNEV [SSN2]		2.54 ± 0.18	2.97 ± 0.2	3.16 ± 0.17
TRKAVRPQKLRASLVPG [RPL6B]	2.26 ± 0.11	1.67 ± 0.11	2.9 ± 0.14	1.83 ± 0.046
SQEQGMGMDLYKTSKAA [FAS1]	3.05 ± 0.086	3.15 ± 0.07	2.72 ± 0.059	3.3 ± 0.057
HRSGKIVVQLNGRLNKC [RPS22A]		3.52 ± 0.23	2.98 ± 0.13	3.36 ± 0.13
PKEPRLKSQMDTSKALL [SKI6]		3.17 ± 0.18		
NIDYQKGLLIWRLLFID [GRR1]	1.9 ± 0.06	1.28 ± 0.063	1.22 ± 0.2	1.45 ± 0.068
SQRAQVVTMSVKSVNDP [RPC37]	2.17 ± 0.073	2.4 ± 0.11	1.89 ± 0.08	1.97 ± 0.1
KHVGFELLSMGNAKESK [SRP72]	2.88 ± 0.11	2.03 ± 0.14	2.4 ± 0.18	3.24 ± 0.14
TATAATNGNNAGGGSNK [MED6]	3.23 ± 0.12	3.41 ± 0.085	3.27 ± 0.11	3.46 ± 0.1
KLLKIPKFISEALAFTS [YDL116W/NUP84]	2.32 ± 0.093	2.46 ± 0.086	2.24 ± 0.1	2.75 ± 0.05
CASIPIAIIKDTSDIIV [RRP46]	1.73 ± 0.044	1.88 ± 0.043	1.75 ± 0.065	1.6 ± 0.04
LLSKKHGQLKLSIQYMI [RPN5]	1.43 ± 0.046	1.96 ± 0.053	1.36 ± 0.094	1.65 ± 0.053
DHNALPQRCTFAFEAID [POP1]	2.36 ± 0.09	2.84 ± 0.077	2.79 ± 0.089	3.09 ± 0.057
TIRTRKVISNPLLARKQ [RPS24A]	1.74 ± 0.1	1.88 ± 0.066	2.35 ± 0.13	1.87 ± 0.089
KEDTVSWFKQKYDADVL [RPL11A]	1.5 ± 0.069	1.43 ± 0.055	1.57 ± 0.1	1.53 ± 0.06
LPVNIRRIIQNAQQTFH [RPO21]	2 ± 0.053	2.01 ± 0.05	2.64 ± 0.075	1.56 ± 0.051
ELSDSWRAHDSSIVAID [YGL100W/SEH1]	2.9 ± 0.084	2.72 ± 0.11	3.24 ± 0.054	2.8 ± 0.08
LYDALEPSDLRSWTLTS [YGL100W/SEH1]	2.82 ± 0.048	2.79 ± 0.046	2.78 ± 0.038	3.03 ± 0.049
SIGEPGTQMTLKTFHFA [RPO31]			2.56 ± 0.096	2.65 ± 0.17
TRSHEYGRKSFRNNKND [REC8]	3.2 ± 0.11	3.16 ± 0.067	3.29 ± 0.051	3.3 ± 0.067
IPVKLLNEAQGHIVSLE [SMD3]	3.14 ± 0.12	3.42 ± 0.16	2.77 ± 0.093	3.08 ± 0.11
QMDQQLQYTALTGSPNN [ARP7]	2.91 ± 0.11	3.36 ± 0.096	3.33 ± 0.071	3.13 ± 0.063

Sequence	protein stability index (doa10∆)	protein stability index (pdr5∆)	protein stability index (san1∆)	protein stability index (ubr1∆)
HVTQEDFELAVGKVMNK [RPT6]	2.83 ± 0.17	2.82 ± 0.13	2.62 ± 0.13	2.69 ± 0.15
KTCAKSVIQLCGGINDS [ECM29]	3.43 ± 0.26			
EGQLKPGDGSSYINVTF [RPC25]	3.44 ± 0.15	3.12 ± 0.15	2.77 ± 0.19	3.02 ± 0.11
AKRAQFRKKRKFELGRQ [RPS8A]	3.24 ± 0.08	3.28 ± 0.077	3.31 ± 0.066	3.02 ± 0.081
KVFVPPKSKSLPNEMSQ [RPO31]	3.1 ± 0.13	3.14 ± 0.12	3.09 ± 0.16	2.87 ± 0.13
TGATSLFGSSNNNNNNN [YGL172W/NUP49]	2.39 ± 0.046	2.07 ± 0.038	2.34 ± 0.056	2.42 ± 0.043
NILLRERDSYKLLASTE [YIL149C/MLP2]	2.59 ± 0.058	2.53 ± 0.055	2.49 ± 0.063	2.4 ± 0.055
DTVDRLIIKYQKYWESM [GAL11]	2.73 ± 0.053	2.83 ± 0.065	2.62 ± 0.053	3.02 ± 0.062
QFISSRQFEVKQLQLAM [POP1]	2.24 ± 0.051	2.45 ± 0.051	2.1 ± 0.067	1.74 ± 0.037
MMCDFGTGNNNKLNFIV [DIB1]	1.13 ± 0.084	1.22 ± 0.048	1.96 ± 0.15	1.6 ± 0.061
AEQFKHQHGDKVDIFEI [FAS2]				3.06 ± 0.21
EKNYDRKEPPATVEECV [PRE6]	3.3 ± 0.14	3.29 ± 0.12	3.11 ± 0.079	3.3 ± 0.072
GAGGLNPFTSATSSTNA [YOR098C/NUP1]	2.04 ± 0.12	2.07 ± 0.18	2.69 ± 0.18	2.94 ± 0.13
KKKVYTTPKKIKHKHKK [RPS31]	3.38 ± 0.16	2.86 ± 0.2		
AAESKKYRQTKLSKEER [RPL5]	3.1 ± 0.23		3.05 ± 0.22	3.06 ± 0.26
GNLSKREIQIDAVLKIF [SRB8]	2.75 ± 0.065	2.83 ± 0.063	2.99 ± 0.063	2.68 ± 0.049
IDLLLLGQERATDLAGP [PRP8]	2.47 ± 0.047	2.58 ± 0.083	2.34 ± 0.087	2.29 ± 0.05
IAGVITRSKRLSQVYPT [CSN12]	2.91 ± 0.18	2.84 ± 0.11	3.11 ± 0.12	3.01 ± 0.071
TSFGQPQSAPNQMGMGT [YOR098C/NUP1]	2.81 ± 0.094	2.83 ± 0.18	2.9 ± 0.15	2.41 ± 0.17
LGRVRNHFIFNVESAGA [RPC40]	1.38 ± 0.062	1.5 ± 0.069	1.62 ± 0.09	1.27 ± 0.065
TRSQFCLNTQRGDSTET [RRI1]	3.07 ± 0.094	3.32 ± 0.094	3.22 ± 0.063	3 ± 0.076
KLLKVCLTMFEDRNESV [ECM29]	2.41 ± 0.14	1.99 ± 0.27	2.58 ± 0.078	2.66 ± 0.16
DTTANNGKVQYFLRRQY [YJL039C/NUP192]	2.71 ± 0.095	2.65 ± 0.14	2.83 ± 0.15	2.98 ± 0.091
PSLRKLIESGIGTHHAG [BRR2]	3.16 ± 0.19	3.38 ± 0.28	3.11 ± 0.2	3.64 ± 0.13
PKAMTDTDNECVAAWGV [HRT1]	3.23 ± 0.12	3.48 ± 0.17	3.03 ± 0.13	3.05 ± 0.042
SKVVIDSIIDNIVKLCF [IRR1]	2.75 ± 0.079	2.32 ± 0.034	2.2 ± 0.089	2.45 ± 0.026
QHLRNEHGMNAPSVPEF [SNF2]	2.86 ± 0.1	3.56 ± 0.13	2.96 ± 0.08	3.09 ± 0.061
